Molecular target: T1, HIS-ABI3 fusion protein (Arabidopsis thaliana, UniProt Q01593 1-720)
T1 sequence (looked up): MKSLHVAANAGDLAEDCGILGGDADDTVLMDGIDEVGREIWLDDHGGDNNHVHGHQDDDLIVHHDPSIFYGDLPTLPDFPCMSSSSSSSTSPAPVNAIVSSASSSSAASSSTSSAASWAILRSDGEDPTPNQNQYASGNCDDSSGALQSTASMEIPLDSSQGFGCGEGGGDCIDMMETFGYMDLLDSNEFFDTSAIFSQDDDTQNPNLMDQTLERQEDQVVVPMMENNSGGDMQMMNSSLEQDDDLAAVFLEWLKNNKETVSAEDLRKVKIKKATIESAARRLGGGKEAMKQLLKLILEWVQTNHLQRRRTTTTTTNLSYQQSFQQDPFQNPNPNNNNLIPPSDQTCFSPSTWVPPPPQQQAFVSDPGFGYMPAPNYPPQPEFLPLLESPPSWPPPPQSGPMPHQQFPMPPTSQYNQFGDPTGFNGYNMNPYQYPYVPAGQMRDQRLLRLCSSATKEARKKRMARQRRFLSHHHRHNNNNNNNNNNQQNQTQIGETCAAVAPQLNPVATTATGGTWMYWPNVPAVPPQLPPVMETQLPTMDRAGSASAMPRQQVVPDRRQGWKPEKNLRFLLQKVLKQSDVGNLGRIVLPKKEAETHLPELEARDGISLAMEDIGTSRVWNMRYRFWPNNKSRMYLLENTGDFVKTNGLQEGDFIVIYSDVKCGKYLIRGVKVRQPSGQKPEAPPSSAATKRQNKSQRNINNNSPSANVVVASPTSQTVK
Assay: pull-down

binding result: binds
B1: GST-ERF1 fusion protein (natural protein)
chain: not shown

— paper doi:10.1101/2023.03.08.531793 (bioRxiv, 2023)
